{"source": "patent US20230374148A1", "about": "“BINDING MOLECULES THAT MULTIMERISE CD45” (UCB BIOPHARMA SRL, priority 2020, published 2023)", "system": "CD34+ stem cells in PBMCs", "test": "Apoptosis of peripheral blood haematopoietic stem cells in PBMCs", "assay_type": "cell-based, human", "conditions": "24 hrs, 200-0.00632 nM", "procedure": "Human whole blood (K2EDTA tubes) was received from one donor (#PR20T386505, from Cambridge Bioscience, UK). PBMCs were isolated from whole blood using pre-filled LeucoSep tubes (Greiner). Whole blood was layered on to the LeucoSep filter and tubes spun (800 g, 15 min, slow acceleration and deceleration, at RT). The buffy coat was extracted and cells washed twice in sterile PBS. PBMC were resuspended in 50 ml complete media (RPMI 1640+2 mM GlutaMAX+1% Pen/Strep, all previously supplied by Invitrogen, +10% Fetal Bovine Serum (FBS), Sigma Aldrich). Cells were counted using a ChemoMetec NucleoCounter NC-3000. 1×10^6 cells per well in 80 μl were then added to each well of a Corning Costar 96-well, cell culture treated, U-shaped-bottom microplate (cat no. 07-200-95).\nIn a Greiner 96-well non-binding microplate, Fab-X and Fab-Y combination 6294-X/4133-Y, was added to complete media to give a Fab-KD-Fab concentration of 1000 nM. Similarly, 1000 nM stocks of 4133-6294 BYbe and NegCtrl BYbe were prepared in complete media. The microplate was incubated for 1 hr at 37° C., 5% CO2. Following the incubation, Fab-KD-Fab and BYbe reagents were then serially diluted in complete media in a half log dilution series, 7 times to produce an 8-point dose curve. […]\nCells were analysed using the Bio-Rad ZE5 Cell Analyzer. […]", "data": [{"molecule": "4133-6294 BYbe: anti-CD45 BYbe (Fab-scFv): 4133 Fab HC-G4S linker-6294 scFv heavy chain paired with 4133 light chain (antibody) heavy: QEQLVESGGGLVQPEGSLTLTCTASGFSFSGNYYMCWVRQAPGKGLEWIGCLYTGSSGSTYYASWAKGRFTISKTSSTTVTLQMTSLTAADTATYFCARDLGYEIDGYGGLWGQGTLVTVSSGQPKAPSVFPLAPCCGDTPSSTVTLGCLVKGYLPEPVTVTWNSGTLTNGVRTFPSVRQSSGLYSLSSVVSVTSSSQPVTCNVAHPATNTKVDKTVAPSTCSKPGGGGSGGGGSEVQLVESGAELARPGASVKMSCKASGYTFTSYTMHWVKQRPGQCLEWIGYINPSSGYTEYNQKFKDKTTLTADKSSSTAYLQLSSLTSEDSAVYYCARVGDGFYPSWLAYWGQGTLVTVSSGGGGSGGGGSGGGGSGGGGSDIQMTQSPKFLLVSAGDRVTITCKASQSVRNDVAWYQQKPGQSPKLLIFYASKRYTGVPDRFTGSGYGTDFTFTISTVQAEDLAVYFCQQDYSSPTTFGCGTKLEIK light: AQVLTQTPSPVSAVVGGTVSISCQASQSVYNNNNLSWYQQKPGQPPKLLIYDASKLASGVPSRFKGSGSGTQFTLTISGVQCDDAATYYCLGGYYSSGWYFAFGGGTKVVVKRTPVAPTVLIFPPAADQVATGTVTIVCVANKYFPDVTVTWEVDGTTQTTGIENSKTPQNSADCTYNLSSTLTLTSTQYNSHKEYTCKVTQGTTSVVQSFNRGDC", "values": [{"measurement": "reductions in CD34+ stem cells", "value": 53, "unit": "%"}, {"measurement": "reductions in total lymphocytes", "value": 98, "unit": "%"}]}]}
